Assay results from the supplement of paper PMC9170038.

System: MS2 coat protein
Assay: apparent KD of MS2 coat protein; designed switch direction (-1 OFF switch, 1 ON switch): -1; higher = weaker reporter binding
In short: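 Stalled E. coli RNA polymerase transcribed designed RNA switches on Illumina chips, which were then titrated with SNAP-549-labelled MS2 coat protein, doubling from 0.7 or 1.5 nM to 3 µM. Steps lasted from 0.8–1.5 h at the lowest concentration to 10–20 min at the highest. The apparent KD is each design's median over clusters of curve-fitted normalised fluorescence.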

[1] = input ligand: microRNA oligo, concentration not stated
[2] = Eterna round: R95, input ligand: FMN 200 uM
[3] = Eterna round: R95, input ligand: microRNA oligo, concentration not stated
[4] = Eterna round: R95, input ligand: none

Sequence	apparent KD of MS2 coat protein (input ligand: FMN 200 uM)	apparent KD of MS2 coat protein (input ligand: none)	apparent KD of MS2 coat protein [1]	apparent KD of MS2 coat protein [2]	apparent KD of MS2 coat protein [3]	apparent KD of MS2 coat protein [4]
UGUGUGAGACAGGAUAUGCUGGAUGAGAGGCAGGUAGAAGGGUCUACAUGAGGAUCACCCAUGUGGCCGGUUGG [Ex6 #72] (Eterna round: R97, puzzle: Exclusion 6)	26.9 nM	26.3 nM				
UGUUGGUACGUAGGAUAUCCACCAACAGGUGGAAGGAUAUGGAAACAGAAGGUUCGCCAACAGGCGGAGAAGGACGUGGUAACU [pwkr exNG2 2xF7 2xFMN.24] (Eterna round: R96, puzzle: Exclusion NG 2)	126 nM	255 nM	212 nM			
UGUUGUCGCGCAGGAUAUGAGGAUCACCCAUAUAAGGAUAUCGAAAGAGAAGGUCUGAGGAUUACCCAGAAGGGCGGGACAACU [pwkr exNG2 2xF5 2xFMN.30] (Eterna round: R96, puzzle: Exclusion NG 2)	309 nM	70.1 nM	43.8 nM			
UGUUGUCGCGCAGGAUAUGAGGAUCACCCAUAUGGAGGAUAUGAAAAGAAGGUUCUGAGGAUCACCCAGAAGGGCGGGACAACU [pwkr exNG2 2xF5 2xFMN.20] (Eterna round: R96, puzzle: Exclusion NG 2)	261 nM	60.6 nM	43 nM			
UGUUGUCGCGUAGGAUAUGCAUGAGGAUCACCCAUGCAAUUAGAGUUAACAUGAGGAUCACCCAUGUAGAAGGACGGGACAACU [pwkr exNG2 2xF5 1xFMN.6] (Eterna round: R96, puzzle: Exclusion NG 2)	89.2 nM	54.1 nM	34.6 nM			
UGUUGUCGCGUAGGAUAUGCAUGAGGAUCACCCAUGCAAUUAGAGUUAACAUGAGGAUCACCCAUGUAGAAGGGCGGGACAACU [pwkr exNG2 2xF5 1xFMN.7] (Eterna round: R96, puzzle: Exclusion NG 2)	62.8 nM	51.2 nM	42.2 nM			
UGUUGUUACGCAGGAUAUGAGGAUCACCCAUAUCAGGAUAUCGAAAGAGAAUUUCUGAGGAUCACCCAGAAGGGCGGGUUAACA [pwkr exNG2 2xF5 2xFMN.37] (Eterna round: R96, puzzle: Exclusion NG 2)	125 nM	47.7 nM	40.3 nM			
UGUUGUUCAGGAUAUGAUGUAUAAUACAUGAGGAUCACCCAUGUAGAUCCUGAAUUAACAUCAGAAGGGAAUAUUU [JL-ex5-4.59 Brourd mod] (Eterna round: R97, puzzle: Exclusion 5)	19.8 nM	17.2 nM				
UGUUGUUCCGAAGGAUAUGUAUGAGGAUCACCCAUAAGAGUUGAUGUACCAUGAGGAUCACCCAUGUAGAAGGUCGGGUUAACU [pwkr exNG2 2xF5 1xFMN.20] (Eterna round: R96, puzzle: Exclusion NG 2)	200 nM	101 nM	52.6 nM			
UGUUGUUGCGUAGGAUAUUGCCAACAGGCAGUAGGAUAUGCGAAAGCAGAAGGACCGCCAACAGGCGAGAAGGACGGGACAACU [pwkr exNG2 2xF7 2xFMN.13] (Eterna round: R96, puzzle: Exclusion NG 2)	177 nM	72.6 nM	39.4 nM			
UUAAAUCAUGUAGGAUAUGCGUGGCGAAGCUAUGCAGAAGGACAUGAGGAUCACCCAUGUCUUUCCGUCUGCGUACAGAUGGAG [JL Eng1 1.08 mod 4] (Eterna round: R96, puzzle: Exclusion NG 1)	191 nM	24.7 nM	17.4 nM			
UUAACCAGAGGAUAUGCGAAUAAAUAAAACUUUUUUUUUUAACAUGAGGAUCACCCAUGUAGAAGGCUGCAUUU [Ex2 #30] (Eterna round: R97, puzzle: Exclusion 2)	25.4 nM	25.1 nM				
UUAAGCUUUGAGAUCCUUAACAUGAGGAUCACCCAUGUUCGUCUUAUGAUGGUCUGAUCCCUGAGGAUCGGACCGUA [Mat - Sensor v3 - turn-off var 1 - JL Mod - D4] (puzzle: Sensor v3, turn-off variant 1)				180 nM	11.2 nM	219 nM
UUAAUGUGAGGAUAUCAAGAGAGAAAGAGUAAUGGUAAAUAUGAGAAGGCACAUGAGGAUCACCCAUGUUCUUC [Mat - Exclusion 4 - Mod of JL - D60] (puzzle: Exclusion 4)					14.2 nM	
UUAAUGUGAGGAUAUGGUAAAGAUAGAAUGAUGAAAGAACUCCAGAAGGCACAUGAGGAUCACCCAUGUAGAUG [Mat - Exclusion 4 - Mod of JL - D28] (puzzle: Exclusion 4)				68.3 nM	30.5 nM	42 nM
UUAAUUAAUGUCAGGAUAUCUAGAGCCUCGGCUCUAGAGAAGGGACAUGAGGAUCACCCAUGUCACUCUUAAUU [BmEx4/3-C2] (Eterna round: R97, puzzle: Brourd's mod of Exclusion 4)	19.5 nM	18.7 nM				
UUAAUUAAUUAAGGCUGAAGAUCACAUGAGGAUCACCCAUGUAAGGAUAUCAGCUCGUUUAGAGCUGAGAAGGUACAUGCAGCC [ExNG3/18-B2] (Eterna round: R96, puzzle: Exclusion NG 3)	160 nM	370 nM	568 nM			

Sequence	apparent KD of MS2 coat protein (input ligand: FMN 200 uM)	apparent KD of MS2 coat protein (input ligand: none)	apparent KD of MS2 coat protein [1]	apparent KD of MS2 coat protein [2]	apparent KD of MS2 coat protein [3]	apparent KD of MS2 coat protein [4]
UUAAUUAAUUUAAUAUAAGAUCACAUGAGGAUCACCCAUGUAUAGGAUAUCAGCUCGUGUAGAGCUGAGAAGGAUACAUAAUAU [ExNG3/2-B3] (Eterna round: R96, puzzle: Exclusion NG 3)	105 nM	155 nM	161 nM			
UUAAUUAGCUCGCUAGAUCCUCACAUGAGGAUCACCCAUGUGCAGGAUAUCAGCUCGUGUAGAGCUGAGAAGGGCACUGCGAGC [ExNG3/10-A3] (Eterna round: R96, puzzle: Exclusion NG 3)	51.6 nM	108 nM	88.2 nM			
UUAAUUUGAGGAUAUACUAUUAACCACAUGAGGAUCACCCAUGUUCUAUCAUGUAUAUGUGUAGAAGGCAGAAUGC [JR_Ex5_Sub071] (Eterna round: R97, puzzle: Exclusion 5)	58.1 nM	50.7 nM				
UUACAAUGUCGCUUAAUAGCUUUUUGCUCGUCUUAUAUUACAUGAGGAUCACCCAUGUAGAUCAUGUGGCGUGACCU [JL ViennaUCT Maridi mod 7] (puzzle: Sensor v3, turn-off variant 2)				206 nM	40.7 nM	210 nM
UUACGGCGGAGAGGAUAUCCGAAAGGAAGUGUAGGAGAAGGCUCCAGUUGUACAUGAGGAUCACCCAUGUGAUCCUUUCCGAAA [PowerStrip EXNG 1.25] (Eterna round: R96, puzzle: Exclusion NG 1)	2040 nM	126 nM	79.7 nM			
UUAGUAUUGCAAGGAUAUGUUUAUGAUAUUUUUCCUCUUACAUGAGGAUCACCCAUGUUUAACUUACAGAAGGUGCUAUGAUUU [JR_ExcNG2_Sub031] (Eterna round: R96, puzzle: Exclusion NG 2)			342 nM			
UUAUACAAGCAAAGAUCCCACAUGAGGAUCACCCAUGUGCUCGUCUUAUAAGGUACUGUGACGAUAGUCACGGUACC [Mat - Sensor, turn-off var - Eli Mod - D102] (Eterna round: R97, puzzle: Sensor, turn-off variant 1)	38.3 nM	49.9 nM				
UUAUACGUUGAGGAUAUGCGACUUUGUAUAGUUGUAGAAGGCGAUACAUGAGGAUCACCCAUGUUUAUGGGCAU [LRO-Ex6-10] (puzzle: Exclusion 6)					186 nM	
UUAUACGUUGAGGAUAUGCGAUUUAGUAUAGUUGUAGAAGGCGAUACAUGAGGAUCACCCAUGUUUAUGGGCAU [LRO-Ex6-08] (puzzle: Exclusion 6)					268 nM	
UUAUAGUAUGUAGGAUAUCGGUCAGUUUCUGAUCGAGAAGGACAUGAGGAUCACCCAUGUAAGGCUACCGGUUUCUGGUGGCCG [JL ENG1 3.53] (Eterna round: R96, puzzle: Exclusion NG 1)	122 nM	26.1 nM	16.5 nM			
UUAUAUAGUGUGAGGAUAUGCUGGUCCUUGGAUCAGCAGAAGGCACAUGAGGAUCACCCAUGUAGUUUAUUAUU [Mat - Exclusion 4 - JL Mod - D10] (puzzle: Brourd's mod of Exclusion 4)					24.8 nM	
UUAUCCCAUGUGAGGAUAUUAUUUUAAAGAUGCAAUGAGAAGGUACAUGAGGAUCACCCAUGUCCGCGAAAUAU [Eternabot (L2) Solution 57] (Eterna round: R97, puzzle: Brourd's mod of Exclusion 4)	15.4 nM	15.4 nM				
UUAUUAAGUGUGAGGAUAUGCUGGUCCUUGGAUCAGCAGAAGGCACAUGAGGAUCACCCAUGUACUUUAUAAAU [JL bmx4 3.05] (puzzle: Brourd's mod of Exclusion 4)					14.6 nM	
UUAUUACAAGCAAGAUCUCACAUGAGGAUCACCCAUGUGCUCGUCUUAAAAGGUACUGUGACGAAAGUCACGGUACC [Eli 100 v3] (Eterna round: R97, puzzle: Sensor, turn-off variant 1)	16.4 nM	14.9 nM				
UUAUUACGAGGAUAUCGUUUUUAUCACAUGAGGAUCACCCAUGUUGUUUAUGUUUCGUUUCGAGAAGGCGUUUGUU [JR_E5_Sub066] (puzzle: Exclusion 5)					24.4 nM	
UUAUUUCAAGCAAGAUCCUACAUGAGGAUCACCCAUGUGCUCGUCUUAUAAGGUACAGUGACGAAAGUCACAGUACC [Sensor 3, v1 - 000] (puzzle: Sensor v3, turn-off variant 1)				173 nM	152 nM	202 nM
